Measured values from publication PMC6773438.

Target: mononucleosomes reconstituted by salt dialysis with purified recombinant Drosophila core histones (Drosophila), P84051
Assay: native gel or EMSA; gel mobility shift; 147 bp X. borealis 5S rDNA mononucleosomes (60 nM) with indicated amounts of Dsup; HEG buffer (25 mM Hepes K+, pH 7.6, 0.1 mM EDTA, 10% glycerol), 100 mM KCl, BSA; 30°C 30 min; nondenaturing 4.5% polyacrylamide gel at 4°C, ethidium bromide
Details: remark: other sources report otherwise

B1: Ramazzottius varieornatus damage suppressor protein (Rv Dsup), P0DOW4 1-445 (natural protein)
chain: MASTHQSSTEPSSTGKSEETKKDASQGSGQDSKNVTVTKGTGSSATSAAIVKTGGSQGKDSSTTAGSSSTQGQKFSTTPTDPKTFSSDQKEKSKSPAKEVPSGGDSKSQGDTKSQSDAKSSGQSQGQSKDSGKSSSDSSKSHSVIGAVKDVVAGAKDVAGKAVEDAPSIMHTAVDAVKNAATTVKDVASSAASTVAEKVVDAYHSVVGDKTDDKKEGEHSGDKKDDSKAGSGSGQGGDNKKSEGETSGQAESSSGNEGAAPAKGRGRGRPPAAAKGVAKGAAKGAAASKGAKSGAESSKGGEQSSGDIEMADASSKGGSDQRDSAATVGEGGASGSEGGAKKGRGRGAGKKADAGDTSAEPPRRSSRLTSSGTGAGSAPAAAKGGAKRAASSSSTPSNAKKQATGGAGKAAATKATAAKSAASKAPQNGAGAKKKGGKAGGRKRK
stoichiometry N (molecules of Rv Dsup per nucleosome): 2
